This is an account of results in US20020077284A1 (WHITEHEAD INSTITUTE FOR BIOMEDICAL RESEARCH, published 2002).

Positions of bridges follow the written chain, without caps; N, C: chain ends. Non-standard residues stand in square brackets, D forms with d.

The target of data set [1] is T1, HIV-1 envelope protein gp41 subunit (HXB2 envelope), N-helix coiled-coil (HIV-1 (HXB2), UniProt P04578 512-856). Briefly: cell-based or functional assay.
Data set [2] deals with T1, HIV-1 envelope protein gp41 subunit …. Kind of data set: cell-based or functional assay. This is another data set of the same source.
For data set [3], the target named is T2, N36 peptide of HIV-1 gp41 (HIV-1).
T2 construct: Synthetic peptide; forms the trimeric N36 coiled-coil of the N36/C34 complex
Briefly: circular dichroism thermal melt at 222 nm; 10 µM C34 peptide + 10 µM N36 in PBS pH 7.0. In general terms: Circular dichroism is widely used to follow secondary structure.

The target of data set [4] is T2, N36 peptide of HIV-1 gp41. Kind of data set: circular dichroism thermal melt of the N36/C34 variant complex.

Consider Ac-[dK][dK]G[dA][dC][dE][dL][dL]G[dW][dE][dW][dA][dW][dL][dC][dA][dA]-NH2 (disulfide 5-16 (inferred)) [D10pep5], for which the “IC50, syncytia assay” value in data set [1] is roughly 6000 nM.
As to Ac-[dK][dK][dK][dK]G[dA][dC][dE][dL][dL]G[dW][dE][dW][dA][dW][dL][dC][dA][dA]-NH2 (disulfide 7-18 (inferred)) [D10pep5a], in data set [1], the “IC50 for inhibition of syncytia formation, against D10pep5” value was roughly 2 fold.
Consider Ac-WMEWDAEINNYTSLIHSLIEESQNQQEKNEQELL-NH2 (Position in gp41 numbering) [C34 peptide Arg^633→Ala], for which, in data set [2], the “IC50 (nM) cell fusion” value was determined as 0.76 nM and the “IC50 (nM) viral entry” value turned out to be 2.6 nM. Moreover, the “Tm (apparent melting temperature of the N36/C34 complex)” value (“Tm” below) in data set [3] was determined as 65 ° C.
In the case of Ac-WMEADREINNYTSLIHSLIEESQNQQEKNEQELL-NH2 (Position in gp41 numbering) [C34 peptide Trp^631→Ala], in data set [1], the “decrease in inhibitory activity against wildtype C34” value is roughly 30 fold. Further, the “Tm” value in data set [3] worked out at 37 ° C.
As to Ac-WMEWDREANNYTSLIHSLIEESQNQQEKNEQELL-NH2 (Position in gp41 numbering) [C34 peptide Ile^635→Ala], in data set [1], the “decrease in inhibitory activity against wildtype C34” value was roughly 2 fold. Moreover, in data set [2], the “IC50 (nM) cell fusion” value worked out at 0.96 nM and the “IC50 (nM) viral entry” value amounted to 4.1 nM. Further, the “Tm” value in data set [3] is 55 ° C.
With Ac-WMEFDREINNYTSLIHSLIEESQNQQEKNEQELL-NH2 [C34 peptide Trp^631→Phe], in data set [1], the “IC50 values (nanomolar) for cell fusion” value amounted to 1.6 nM and the “IC50 values (nanomolar) for virus entry” value is 3.61 nM. For the same molecule, the “Tm” value in data set [4] was determined as 59 ° C.
Taken in the same sequence, the figures for Ac-WMEVDREINNYTSLIHSLIEESQNQQEKNEQELL-NH2 [C34 peptide Trp^631→Val] were 4.5 nM, 13 nM and 43 ° C.
Regarding Ac-WMELDREINNYTSLIHSLIEESQNQQEKNEQELL-NH2 [C34 peptide Trp^631→Leu], in data set [1], the “IC50 values (nanomolar) for cell fusion” value is 3.2 nM and the “IC50 values (nanomolar) for virus entry” value is 5.3 nM. Further, the “Tm” value in data set [4] came out at 50 ° C.
For the molecule Ac-WMEGDREINNYTSLIHSLIEESQNQQEKNEQELL-NH2 (Position in gp41 numbering) [C34 peptide Trp^631→Gly], in data set [1], the “IC50 values (nanomolar) for cell fusion” value stood at 25 nM and the “IC50 values (nanomolar) for virus entry” value worked out at 38 nM. In addition, the “Tm” value in data set [4] came to 35 ° C.
For Ac-[dK][dK]G[dA][dC][dE][dA][dR][dH][dR][dE][dW][dA][dW][dL][dC][dA][dA]-NH2 (disulfide 5-16 (inferred)) [D10pep1a], the “IC50 for inhibition of syncytia formation, against D10pep1” value in data set [1] is roughly 2 fold.
